Reference: article PMC12119765, “Unveiling the potential of copper-61 vs. gallium-68 for SSTR PET imaging” (European Journal of Nuclear Medicine and Molecular Imaging, 2025)

Legend:
tumor = tested on: tumor; parameters: method as in PMID 32297029; details: cited from earlier work
[1] = tested on: AR42J subcutaneous tumor-bearing mice; details: 1 h p.i., i.v.
Protocol: (§1) Animal studies were approved by the Animal Welfare Committee of the Institute for Nuclear Sciences Applied to Health (ICNAS) of University of Coimbra (ORBEA 05-2024) and by the Portuguese National Authority for Animal Health (DGAV). Athymic male Swiss Foxn1nu mice (28–32 g, 6–8 weeks old) were purchased from ICNAS and housed under pathogen free conditions in individually ventilated cages. To establish the tumor model, animals were injected subcutaneously in the left flank with 3 × 10^6 AR42J cells resuspended in 100 µL of PBS 50 with 50% Matrigel. Tumor growth was monitored twice weekly by caliper measurements and were allowed to grow to a maximum volume of 1 cm^3.
A set of fiducial markers was used for an optimal PET/MRI co-registration. The breathing rate and body temperature of the animals were monitored throughout the imaging procedures (SA Instruments SA, USA). After the PET scan, a whole-body MRI was performed on a BioSpec 9.4T MRI scanner with a body volume resonator (transmitter/receiver) with the animal in the same position for anatomical co-localization. […] Quantitative image processing was performed using PMOD (PMOD, v 3.6; PMOD Technologies, Zürich, Switzerland, RRID: SCR_016547). […] Blood samples were collected at 1, 2, and 4 h after injection for measurement of whole-blood radioactivity concentrations.

[2] = tested on: SSTR-expressing AR42J cells; test: Cell uptake and internalization studies in SSTR-expressing AR42J cells; assay type: cell-based, rat; details: for Intracellular (internalized) activity: 2 h incubation time, 0.5 nM, Fig. 2C, percentage per million cells; for Maximum total uptake into AR42J: at 2 h, 0.5 nM radiolabeled peptide; for Membrane-bound fraction over time: glycine buffer wash fraction, 15 min to 2 h
Protocol: The AR42J cell line, a natural SSTR-overexpressing epithelial-like cell isolated from a rat pancreatic tumor, was purchased from American Type Culture Collection (ATCC, CRL-1492) (Manassas, VA, USA) and cultured in F-12 K medium (ATCC, Catalog No. 30-2004) supplemented with 20% heat-inactivated fetal bovine serum (FBS, Gibco) and 1% PenStrep. The cells were maintained under standard adherent conditions in a humidified incubator with 5% CO2 at 37° C.
Cells were incubated at 37 °C for a maximum of 2–4 h (15 min, 30 min, 1 h, 2 h, and 4 h) for ^68Ga-based and ^61Cu-based radiopharmaceuticals, respectively. At the indicated time points, the cellular uptake was terminated by washing the cells with PBS. Cell surface-bound radioactivity was removed by an acid wash (50 mM glycine, pH 2.8) at RT for 5 min. The pH was neutralized with PBS, and the cells were lysed by incubation with 1 M NaOH at 37 °C for 5 min to determine internalized radioactivity. Each experiment was performed in triplicate. […] For blocking studies, parallel experiments were performed as described above, but cells were incubated in the presence of DOTA-TATE precursor (0.5 µM) at 37 °C for the same time points.

in vivo [3] = details: male, athymic Swiss Foxn1nu, mouse, intravenous, total radioactivity; for tissue uptake at 1 h: AR42J tumor
Protocol: as §1
(§2) Mice were sacrificed at 1.5–4.5 h p.i. and perfused with PBS. Organs including brain, heart, lung, liver, kidney, spleen, stomach, intestine, bone, and muscle were collected and weighted. Blood samples were collected via tail vein bleeding at different time points to monitor the residence time of the radiopharmaceuticals in the circulation. After sacrifice, urine was directly collected from the bladder for radio-HPLC analysis of radiopharmaceutical integrity. The radioactivity of each sample was measured using an automated CRC-55tW gamma well counter (Mirion Technologies - Atlanta, GA, USA). Results were expressed as the percentage of injected dose per gram (ID/g) of tissue and presented as the mean ± SEM (N = 3 per radiopharmaceutical).

healthy control mice = test: PET/MR imaging in healthy control mice; assay type: in vivo
Protocol: (§3) A set of fiducial markers was used for an optimal PET/MRI co-registration. The breathing rate and body temperature of the animals were monitored throughout the imaging procedures (SA Instruments SA, USA). After the PET scan, a whole-body MRI was performed on a BioSpec 9.4T MRI scanner with a body volume resonator (transmitter/receiver) with the animal in the same position for anatomical co-localization. Anatomical reference images were obtained from axial and coronal multi-slice scans. A set of fiducial markers were used on the animal bed for an optimal PET/MRI co-registration. Quantitative image processing was performed using PMOD (PMOD, v 3.6; PMOD Technologies, Zürich, Switzerland, RRID: SCR_016547). FUSION Tools were used to deliniate volumes of interest (VOIs) on the PET images co-registered with the anatomical MRI. Blood samples were collected at 1, 2, and 4 h after injection for measurement of whole-blood radioactivity concentrations.

[4] = urine sample collected 4 h after i.v. injection
Protocol: as §2

[5] = In vitro stability in the final formulation (10% EtOH) by radioHPLC; assay type: physicochemical
Protocol: The HPLC method used is detailed in Table 1.
The stability of [^61Cu]Cu-NOTA-TATE was tested in the final formulation up to 6 h after EOS. At different time points (T0, T0 + 2, T0 + 4 and T0 + 6 h) aliquots were taken and measured using the previously described radioHPLC method.

AR42J tumor-bearing mice = test: in vivo; details: AR42J tumor, 4 h p.i., mean ± SEM, N = 3
Protocol: as §1, §2

in vivo [6] = details: male, athymic Swiss Foxn1nu, mouse, whole blood, total radioactivity
Protocol: as §3, §2

SMILES: C[C@@H](O)[C@H](NC(=O)[C@@H]1CSSC[C@H](NC(=O)[C@@H](Cc2ccccc2)NC(=O)CN2CCN(CC(=O)O)CCN(CC(=O)O)CCN(CC(=O)O)CC2)C(=O)N[C@@H](Cc2ccc(O)cc2)C(=O)N[C@H](Cc2c[nH]c3ccccc23)C(=O)N[C@@H](CCCCN)C(=O)N[C@@H]([C@@H](C)O)C(=O)N1)C(=O)O [[^68Ga]Ga-DOTA-TATE, metal not drawn, reference compound]
- Tumor uptake (tumor): 3.14 ± 2.07%
- Biodistribution profile in PET/MR images [1]: significant tumor and bladder accumulation
- Intracellular (internalized) activity [2]: 51.2%
- Maximum total uptake into AR42J [2]: 62.5 ± 1.9 %/10^6 cells
- Membrane-bound fraction over time [2]: ≤ 10%
- tissue uptake at 1 h (in vivo [3]): 8.73 ± 0.45 %ID/g

SMILES: [Cl][Cu][Cl] [[^61Cu]CuCl2, copper chloride, reference compound]
- Biodistribution profile in PET/MR images (healthy control mice; healthy mice, 1 h after injection): accumulation profile of free copper in the liver and the intestine

SMILES: C[C@@H](O)[C@H](NC(=O)[C@@H]1CSSC[C@H](NC(=O)[C@@H](Cc2ccccc2)NC(=O)CN2CCN(CC(=O)O)CCN(CC(=O)O)CC2)C(=O)N[C@@H](Cc2ccc(O)cc2)C(=O)N[C@H](Cc2c[nH]c3ccccc23)C(=O)N[C@@H](CCCCN)C(=O)N[C@@H]([C@@H](C)O)C(=O)N1)C(=O)O [[^61Cu]Cu-NOTA-TATE, metal not drawn]
- Biodistribution profile in PET/MR images (healthy control mice; healthy control mice, 1 h and 4 h p.i.): rapid clearance with marked accumulation in the kidneys and bladder
- Intracellular (internalized) activity [2]: 51.4%
- Maximum total uptake into AR42J [2]: 58.6 ± 3.6 %/10^6 cells
- Membrane-bound fraction over time [2]: ≤ 10%
- Intact radiopharmaceutical in urine (radioHPLC) [4]: 100%
- Time stable after EOS ([5]; after the EOS): at least 6 h
- In vitro stability (radiochemical purity by radioHPLC) ([5]; final formulation (10% EtOH), after 6 h of incubation): > 95%
- Tumor uptake (tumor activity) (AR42J tumor-bearing mice): 12.81 ± 0.57 % ID/g
- tissue uptake at 1 h (in vivo [3]): 13.2 ± 1.86 %ID/g
- tissue to tissue ratio at 1 h (in vivo [3]; tumor and kidney): 4.25 ± 1.09
- tissue to tissue ratio at 4 h (in vivo [3]; tumor and kidney): 17.3 ± 4.99
- tissue to tissue ratio at 1 h (in vivo [3]; tumor and liver): 14.1 ± 4.29
- tissue to tissue ratio at 4 h (in vivo [3]; tumor and liver): 21 ± 1.28
- tissue to tissue ratio at 1 h (in vivo [3]; tumor and muscle): 255 ± 64.7
- tissue to tissue ratio at 4 h (in vivo [3]; tumor and muscle): 495 ± 109
- tissue uptake at 2 h (in vivo [6]; intravenous): 0.13 ± 0.02 %ID/g
- tissue uptake at 4 h (in vivo [6]; intravenous): 0.09 ± 0.004 %ID/g
- tissue uptake at 1 h (in vivo [6]; iv): 0.19 ± 0.003 %ID/g
